We go through two molecules from patent publication US8071348B2, “Protein tyrosine phosphatase substrate-trapping double mutant and uses thereof” (Albert Einstein College of Medicine of Yeshiva University, priority 2002, dated 2011).

Like-named read-outs stand apart in the source and are kept apart here. [ ]: non-standard residue; d: D form. F2Pmp = N[C@@H](Cc1ccc(C(F)(F)P(=O)(O)O)cc1)C(=O)O

For data set [1], the target named is T1, EGFR 988-998 peptide DADEpYLIPQQG.
T1 chain: DADEXLIPQQG

The nature of data set [2]: Kinetic constants for PTP1B-catalyzed hydrolysis of pNPP. It is filed as biochemical. The conditions noted are these: pNPP as substrate. From the text:
(§1) The catalytic domain of PTP1B (residues 1 to 321) was used for in vitro study. PTP1B mutants, C215S, D181A, and Q262A, were described previously (9, 25, 26). PTP1B double mutants, D181A/C215S and C215S/Q262A, were generated by PCR reactions, according to the standard procedure of the Quick-Change™ site-directed mutagenesis kit (Stratagene), using pT7-7/PTP1B/C215S as a template. PTP1B double mutants, D181A/C215E and D181A/Q262A, were generated by similar PCR procedures, using pT7-7/PTP1B/D181A as a template. The recombinant wild-type and mutant PTP1Bs were expressed in E. coli, and purified to homogeneity as described (25, 27). Protein concentration was determined from absorbance measurement at 280 nm, using an absorbance coefficient of 1.24 for 1 mg/ml PTP1B.
PTP activity was assayed at 25° C. and pH 7.0, in a reaction mixture (0.2 ml) containing pNPP concentrations ranging from 0.2 to 5 Km. The following buffered solution was used for activity measurements: pH 7.0, 50 mM 3,3-dimethylglutarate, 1 mM EDTA; the ionic strength was 0.15 M, as adjusted by addition of NaCl. Initial rate measurements for the enzyme-catalyzed hydrolysis of pNPP were conducted as previously described (26). Michaelis-Menten kinetic parameters were determined from a direct fit of the data to the Michaelis-Menten equation, using the nonlinear regression program, KINETASYST (Intellikinetics, State College, Pa.).

The target in data set [3] is T2, EGFR^988-998 peptide, DADEpYLIPQQG (Homo sapiens, UniProt P18031, D181A).
T2 construct: The catalytic domain of PTP1B (residues 1 to 321) was used for in vitro study; made in house; host or cells: E. coli (pT7-7 plasmids)
T2 sequence (P18031 1-321 D181A): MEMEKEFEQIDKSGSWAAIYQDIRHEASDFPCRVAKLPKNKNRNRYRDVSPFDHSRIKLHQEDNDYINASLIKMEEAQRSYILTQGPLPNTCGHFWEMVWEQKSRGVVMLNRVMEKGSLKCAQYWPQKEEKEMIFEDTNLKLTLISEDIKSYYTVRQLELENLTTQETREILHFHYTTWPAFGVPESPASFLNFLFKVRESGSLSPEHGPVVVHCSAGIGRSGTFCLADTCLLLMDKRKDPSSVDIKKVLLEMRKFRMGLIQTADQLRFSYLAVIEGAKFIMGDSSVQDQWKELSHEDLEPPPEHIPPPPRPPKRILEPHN
As to the kind of experiment: Kinetic constants for PTP1B-catalyzed hydrolysis of pTyr-containing EGFR988-998 peptide. It is filed as biochemical. To be noted: EGFR988-998 peptide as substrate.
Description: as §1
(§2) All assays were performed at 25° C. in buffer (pH 7.0, ionic strength=0.15 M) containing 50 mM 3,3-dimethylglutarate and 1 mM EDTA. A continuous spectrophotometric assay, previously described (28), was employed to determine kcat and Km for the pTyr-containing peptides. The dephosphorylation reaction was monitored by either an increase in absorbance at 282 nm, or an increase in fluorescence at 305 nm. Fluorometric and absorbance determinations were performed on a Perkin-Elmer LS50B fluorometer and a Perkin-Elmer Lambda 14 spectrophotometer, respectively. The instruments were equipped with a water-jacketed cell holder, permitting maintenance of the reaction mixture at the desired temperature (25° C.).

Data set [4] has as its system EGFR^988-998 peptide, DADEpYLIPQQG. Described as above. The data set is classed as biochemical. The conditions noted are these: EGFR988-998 peptide as substrate.
Description: as §1, §2

Another data set deals with EGF receptor. As to the kind of experiment: Substrate protection: EGF receptor tyrosine phosphorylation in COS1 cells expressing PTP1B forms (anti-pTyr Western blot). To be noted: COS1 cell lysates, anti-pTyr immunoblot (FIG. 4). The data set is classed as cell-based, Monkey. On the procedure:
FIG. 4 sets forth Western blots (WB) that show the level of tyrosine phosphorylation in the epidermal growth factor receptor (EGFR) upon expression of the wild-type and mutant PTP1Bs (4 μg plasmid/60 mm dish) in COS1 cells. Samples (50 μg total protein) were taken from the lysates of COS1 cells transfected with 4 μg of pJ3H plasmids expressing HA-tagged wild-type PTP1B, D181A, C215S, D181A/Q262A, or D181A/C215S. These samples were loaded into each lane for SDS-PAGE electrophoresis, and transferred onto a nitrocellulose membrane. The proteins on the membrane were first immunoblotted with anti-pTyr HRP conjugate (upper panel). The membrane was then stripped and re-probed with anti-hemagglutinin (anti-HA) HRP conjugate (lower panel).
The hemagglutinin-tagged (HA-tagged) full-length human wild-type PTP1B in pJ3H expression vector was a gift from Dr. Chemoff (30). The HA-tagged PTP1B mutants, C215S, D181A, D181A/C215S, and D181A/Q262A, were generated by PCR reactions, according to the standard procedure of the Quick-Change™ site-directed mutagenesis kit (Stratagene), using pJ3H-HA-PTP1B as a template. All mutations were verified by DNA sequencing.
Monkey kidney COS1 cells (ATCC: CRL-1650) were maintained in Dulbecco's modified Eagle's minimum essential medium (DMEM), supplemented with 10% fetal bovine serum (Life Technologies, Inc.), penicillin (50 units/ml), streptomycin (50 μg/ml), and L-glutamine (2 mM) under a humidified atmosphere containing 5% CO2. In transient transfection experiments, COS1 cells were inoculated at a density of 2×10^5 cells/60-mm dish, and grown overnight in DMEM containing 10% fetal bovine serum. Transfection was performed using LipoTAXI^R according to the manufacturer's recommendations (Stratagene, Cedar Creek, Tex.). Each transfection assay included 4 μg of purified DNA mixed with LipoTAXI^R in a 1:5 DNA:lipid ratio per 60-mm dish of cells. Following transfection, the cells were exchanged to normal culture medium, and maintained for 44 to 48 h at 37° C. and 5% CO2. The efficiency of transfection, as assessed by 5-bromo-4-chloro-3-indolyl-β-D galactoside (X-Gal) staining of pCMV-β-gal-transfected (β-Gal staining kit, Invitrogen) COS cells, was 25%.
The transfected cells (treated with or without EGF) were lysed with “lysis buffer” containing 50 mM Tris-HC1 (pH 7.5), 5 mM EDTA, 150 mM NaCl, 10 mM sodium phosphate, 10 mM sodium fluoride, 5 mM iodoacetic acid, 1 mM benzamidine, 1% Triton X-100, 10 μg/ml leupeptin, and 5 μg/ml Aprotinin. Lysate protein concentration was estimated using Bio-Rad protein assay reagent (Bio-Rad, Hercules, Calif.).
For immunoprecipitation, 1 mg of cell lysate was immunoprecipitated overnight with 30 μl of agarose-conjugated anti-hemagglutinin antibody at 4° C. Immunocomplexes were washed four times with the cell lysis buffer, and boiled for 5 min in SDS-PAGE sample buffer. Proteins in the cell lysate were separated by 8% SDS-PAGE under reducing conditions, according to the method of Laemmli (31), followed by blotting onto nitrocellulose membranes (Protran, Schleicher & Schuell). The nitrocellulose membranes were blocked with 5% non-fat dry milk in Tris-buffered saline/Tween (TBST) buffer (20 mM Tris-HC1, 150 mM NaCl, 0.1% Tween-20; pH 7.6) for 1 h at 25° C.
Thereafter, blots were incubated overnight with primary antibodies diluted in TBST containing 5% non-fat dry milk at 4° C. […]
On the technique in general: In western blotting, separated proteins are transferred to a membrane and probed.

The subject of data set [5] is Ac-Asp-Ala-Asp-Glu-F2Pmp-Leu-NH2. To be noted: cited from earlier work.
Data set [6] has as its target T3, Ac-Asp-Ala-Asp-Glu-F2Pmp-Leu-NH2.
T3 construct: Synthetic hexapeptide printed in three-letter code; also called F2Pmp-containing peptide; non-hydrolyzable substrate analog
T3 peptide: Ac-DADE[F2Pmp]L-NH2
As to the kind of experiment: ITC, 25 C, pH 7.0. Here is the method:
(§3) All isothermal titration calorimetry experiments were performed using an MCS Isothermal Titration Calorimetry System from Microcal Inc. (Northampton, Mass.). Experiments at pH 7.0 were conducted at 25° C., in 50 mM 3,3-dimethylglutarate buffer containing 1 mM DTT. The ionic strength of the buffer was adjusted to 0.15 M by addition of NaCl. Protein concentration in the calorimeter cell was 27-85 µM, while the ligand concentration in the syringe was 0.37-1 mM.
(§4) A typical titration curve and binding isotherm for the binding of D181A/Q262A to Ac-Asp-Ala-Asp-Glu-F_2Pmp-Leu-NH_2 is shown in FIG. 3. From curve-fitting of the binding isotherms, the stoichiometry for the binding of the peptide to D181A/Q262A was determined to be 1:1.
Background: ITC needs no label: the signal is the heat of the interaction.

The target is the same in data set [7]. As to the kind of experiment: ITC, 25 C, pH 7.0. Here is the method: as §3
The PTP1B samples used in the isothermal titration calorimetry experiments were dialyzed completely against buffer. High-concentration stock solutions were prepared for ligands with distilled water, and adjusted to pH 7.0. […] Protein dilution during titration was determined by titration of buffer into the protein solution. […] The heat of ligand dilution was corrected by subtracting the average heat of injection after saturation.
as §4

The target of data set [8] is Ac-Asp-Ala-Asp-Glu-F2Pmp-Leu-NH2. As to the kind of experiment: Isothermal titration calorimetry, binding of PTP1B and mutants to F2Pmp peptide. The conditions noted are these: ITC, 25° C. and pH 7.0; data from this study. On the procedure: FIG. 3 portrays calorimetric isothermal titration for the reaction of peptide Ac-Asp-Ala-Asp-Glu-F2Pmp-Leu-NH2 with PTP1B/D181A/Q262A. The upper graph depicts raw data for thirty 8-μl injections of the peptide (0.5 mM stock) into the isothermal cell containing 32 μM PTP1B/D181A/Q262A, at 4-min intervals and 25° C. Both the protein and the peptide were in 50 mM 3,3-dimethylglutarate buffer (I=0.15 M, pH 7.0) containing 1 mM DTT. The lower graph depicts an integration curve showing experimental points that were obtained by integration of the above peaks as plotted against the molar ratio of the peptide to PTP1B/D181A/Q262A within the reaction cell. The solid line corresponds to the best fit to the data according to the nonlinear, least-squares regression algorithm, ORIGIN (29).
All isothermal titration calorimetry experiments were performed using an MCS Isothermal Titration Calorimetry System from Microcal Inc. (Northampton, Mass.). […] The ionic strength of the buffer was adjusted to 0.15 M by addition of NaCl. Protein concentration in the calorimeter cell was 27-85 μM, while the ligand concentration in the syringe was 0.37-1 mM.
The PTP1B samples used in the isothermal titration calorimetry experiments were dialyzed completely against buffer. High-concentration stock solutions were prepared for ligands with distilled water, and adjusted to pH 7.0. Stock was diluted at least 26-fold with 50 mM 3,3-dimethylglutarate buffer before titration. Protein dilution during titration was determined by titration of buffer into the protein solution. […] The heat of ligand dilution was corrected by subtracting the average heat of injection after saturation.
The binding data were analyzed using ORIGIN software (29). Binding constant, K, and enthalpy change, ΔH, were used to calculate free energy change, ΔG, and entropy change, ΔS, according to equation [1]: −RTLnK=ΔG=ΔH−TΔS [1] where R is the gas constant and T is the absolute temperature.

B1: PTP1B/D181A, catalytic domain (residues 1 to 321) (protein)
chain: MEMEKEFEQIDKSGSWAAIYQDIRHEASDFPCRVAKLPKNKNRNRYRDVSPFDHSRIKLHQEDNDYINASLIKMEEAQRSYILTQGPLPNTCGHFWEMVWEQKSRGVVMLNRVMEKGSLKCAQYWPQKEEKEMIFEDTNLKLTLISEDIKSYYTVRQLELENLTTQETREILHFHYTTWPAFGVPESPASFLNFLFKVRESGSLSPEHGPVVVHCSAGIGRSGTFCLADTCLLLMDKRKDPSSVDIKKVLLEMRKFRMGLIQTADQLRFSYLAVIEGAKFIMGDSSVQDQWKELSHEDLEPPPEHIPPPPRPPKRILEPHN
Turning to B1, the Km (hydrolysis of the EGFR 988-998 peptide, 25 C, pH 7.0) in data set [1] turned out to be 56 µM. Moreover, in [2], the “Km, fold lower than wild-type enzyme” value is 30 fold and the “kcat, fold lower than wild-type enzyme” value is listed as 320 fold. Moreover, in data set [2] (25° C. and pH 7.0), the Michaelis constant (Km) turned out to be 80 ± 30 µM and the kcat result is on record as “(3.1 ± 0.3) × 10^−2 s^−1”. Further, in data set [3], the “Km, fold higher than PTP1B (wild-type)” value is 22 fold and the “kcat, fold lower than PTP1B (wild-type)” value is given as 920 fold. In data set [4] (25° C. and pH 7.0), the Km came to 56 ± 2 µM and the kcat result was “(6.5 ± 0.2) × 10^−2 s^−”. The “level of pTyr in the EGF receptor / enhancement of EGF receptor phosphorylation” value in the data set on EGF receptor was “higher in cells expressing the D181A, rather than the C215S, mutant”. The “binding, fold tighter than the C215S mutant” value in data set [5] (F2Pmp peptide, previously determined (24)) was 5 fold. In data set [5] (ITC, 25° C. and pH 7.0, data from (24)), the Kd was 40 ± 10 nM.

B2: PTP1B/D181A/C215E, catalytic domain (residues 1 to 321) (enzyme, human, UniProt P18031 1-321, looked up)
chain: MEMEKEFEQIDKSGSWAAIYQDIRHEASDFPCRVAKLPKNKNRNRYRDVSPFDHSRIKLHQEDNDYINASLIKMEEAQRSYILTQGPLPNTCGHFWEMVWEQKSRGVVMLNRVMEKGSLKCAQYWPQKEEKEMIFEDTNLKLTLISEDIKSYYTVRQLELENLTTQETREILHFHYTTWPAFGVPESPASFLNFLFKVRESGSLSPEHGPVVVHESAGIGRSGTFCLADTCLLLMDKRKDPSSVDIKKVLLEMRKFRMGLIQTADQLRFSYLAVIEGAKFIMGDSSVQDQWKELSHEDLEPPPEHIPPPPRPPKRILEPHN
notes: range 1-321; Used in vitro (ITC)
Turning to B2, in data set [6], the “fold lower affinity than the C215S mutant” value stood at 7 fold and the “fold lower affinity than the D181A mutant” value turned out to be 32 fold. In data set [7], this molecule registered a TΔS of -20.4 kcal/mol, a ΔG of -8 kcal/mol and a ΔH of -28.4 kcal/mol. Also, in data set [4], the phosphatase activity result was “no measurable activities”. In [8], the affinity, expressed as Kd, was 1300 nM.

What is called Km is the concentration of substrate that gives half-maximal velocity. The term Kd denotes the concentration at which binding is half-saturated.
